Biological target: T1, human angiotensin converting enzyme 2 (ACE2) receptor on HSC-2 oral squamous cell carcinoma cells (human, UniProt Q9BYF1 18-805)
T1 construct: whole, on cells
Experiment: live cell confocal microscopy of HSC-2 cells with Alexa 595 labeled MASL (legend prints 1.4 pM) and Alexa 647 labeled ACE2 monoclonal antibody. This is colocalisation, not a direct binding assay.

B1: Maackia amurensis seed lectin (MASL) (other)
chain: SDELSFTINNFVPNEADLLFQGEASVSSTGVLQLTRVENGQPQQYSVGRALYAAPVRIWDNTTGSVASFSTSFTFVVKAPNPTITSDGLAFFLAPPDSQIPSGRVSKYLGLFNNSNSDSSNQIVAVEFDTYFGHSYDPWDPNYRHIGIDVNGIESIKTVQWDWINGGVAFATITYLAPNKTLIASLVYPSNQTSFIVAASVDLKEILPEWVRVGFSAATGYPTQVETHDVLSWSFTSTLEANCDAATEN
notes: also called Maacki amurensis seed lectin
Q: Does B1 bind?
A: Result: binds

— patent US20230391837A1 (ROWAN UNIVERSITY, published 2023)
